T1: Tsg101 UEV-N16 complex (UEV domain with N16 covalently attached at C73) (human, UniProt Q99816 2-145, C73 covalently attached (disulfide linkage) to the activated sulfenamide form of N16 (tenatoprazole))
T1 construct: non-native glycine at the N-terminus (residue 1) left by TEV protease cleavage; Tsg101, ubiquitin E2 variant (UEV) domain, residues 2-145, as m1; same polypeptide as m1; also called N16-Tsg101 UEV complex; Tsg101-N16; source: E. coli Rosetta 2 (DE3) pLysS, purified as m1, then incubated with N16 in a 10:1 ratio (N16 excess); not shown: His6, N-terminal, cleaved
T1 sequence: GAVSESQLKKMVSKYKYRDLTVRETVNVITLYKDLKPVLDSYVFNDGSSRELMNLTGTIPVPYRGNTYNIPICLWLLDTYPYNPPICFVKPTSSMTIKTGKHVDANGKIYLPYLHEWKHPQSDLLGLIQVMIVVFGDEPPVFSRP

B1: Tsg101 UEV domain (residues 2–145) (domain or fragment, human)
chain: GAVSESQLKKMVSKYKYRDLTVRETVNVITLYKDLKPVLDSYVFNDGSSRELMNLTGTIPVPYRGNTYNIPICLWLLDTYPYNPPICFVKPTSSMTIKTGKHVDANGKIYLPYLHEWKHPQSDLLGLIQVMIVVFGDEPPVFSRP
notes: non-native glycine at the N-terminus (residue 1) left by TEV protease cleavage; Tsg101, ubiquitin E2 variant (UEV) domain, residues 2-145; the word human is printed for the full-length Tsg101 plasmids, not for this construct itself; also called Tsg101^2–145; 15N-Tsg101 UEV; not shown: His6, N-terminal, cleaved
B2: PTAP peptide (Ace-NFLQSRPEPTAPPEE-CONH2) (peptide)
peptide: Ac-NFLQSRPEPTAPPEE-NH2
notes: also called Gag PTAP peptide; source: synthetic peptide (Bio-Synthesis, Texas)

Key:
Conditions in all cases: both partners purified
[1] = biological target: T2, wild-type ubiquitin (UniProt P0CG48 1-76); assay: NMR titration; HSQC spectra of 15N-labelled Tsg101 UEV or UEV-N16 (200 μM) at 1:0, 1:0.5 and 1:1 ratio to unlabeled ubiquitin; 20 mM potassium phosphate, 50 mM NaCl, pH 5.8
T2 construct: ubiquitin, wild type, unlabeled, encoded in pET-21a; source: E. coli BL21-Gold(DE3), purified (acid precipitation, HiTrap SP ion exchange, S75 gel filtration)

[2] = biological target: B1; assay: NMR titration; chemical shift perturbations of 15N-labelled Tsg101 UEV or UEV-N16 (200 μM) on addition of PTAP peptide at a final 1:1 ratio; 20 mM potassium phosphate, 50 mM NaCl, pH 5.8
[3] = biological target: T1, Tsg101 UEV-N16 complex (UEV domain with …); assay: as above

Binder	binding result [1]	binding result [2]	binding result [3]
B1	binds	–	–
B2	–	binds	binds

From PMC5680296, “Tsg101 chaperone function revealed by HIV-1 assembly inhibitors” (Nature Communications, 2017)
